{"source": "paper PMC12463876", "about": "“AI-assisted design of ligands for lipocalin-2” (Frontiers in Immunology, 2025)", "binders": {"B1": {"name": "MinP-2 (designed binder)", "chain": "MSKATVYDVSTGKTYEVSLEDAKKLASYAVYEGGYPLRISVAPEDTKAILDAIKNTSKEKAEEGKKLLEELN", "notes": "de novo miniprotein (RFdiffusion, ProteinMPNN) designed against LCN2; Cloned into pET30b with a Twin-Strep tag; also called MiniP-2; source: E. coli BL21 (DE3) pLysS, purified (Strep-Tactin XT magnetic beads, dialysis)"}}, "target": "T1, Recombinant human lipocalin-2 (LCN2) (human, UniProt P80188 21-198)", "T1 construct": "Lipocalin-2 (LCN2), human, recombinant; neither is said to be the construct used; also called neutrophil gelatinase-associated lipocalin; siderocalin; source: produced and purified by GenScript", "T1 sequence (P80188 21-198)": "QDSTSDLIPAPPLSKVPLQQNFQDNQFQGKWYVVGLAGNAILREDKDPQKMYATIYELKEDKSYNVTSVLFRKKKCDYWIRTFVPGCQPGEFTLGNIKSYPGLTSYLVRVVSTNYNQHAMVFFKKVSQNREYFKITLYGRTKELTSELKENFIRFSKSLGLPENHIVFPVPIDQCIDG", "experiment": "SPR; MinP-2 immobilised by amine coupling on a CM5 chip (Biacore 8K); LCN2 injected at 7.8, 15.6, 31.2, 62.5 and 125 nM, 30 uL/min, contact 120 s, dissociation 600 s; 25 °C; 1:1 model", "settings": "both partners purified", "data": [{"binder": "B1", "values": [{"measurement": "Kd", "value": 4.2, "unit": "nM"}]}]}
